Experimental data reported in US20250026805A1 (DUCENTIS BIOTHERAPEUTICS, published 2025).

T1: Recombinant Human CD200R, His tagged (human, UniProt Q8TD46 27-266, limits assumed)
T1 construct: Bought reagent; Flowed in solution as the analyte in the SPR; also called human CD200 receptor; CD200 receptor; not shown: His tag
T1 sequence (looked up): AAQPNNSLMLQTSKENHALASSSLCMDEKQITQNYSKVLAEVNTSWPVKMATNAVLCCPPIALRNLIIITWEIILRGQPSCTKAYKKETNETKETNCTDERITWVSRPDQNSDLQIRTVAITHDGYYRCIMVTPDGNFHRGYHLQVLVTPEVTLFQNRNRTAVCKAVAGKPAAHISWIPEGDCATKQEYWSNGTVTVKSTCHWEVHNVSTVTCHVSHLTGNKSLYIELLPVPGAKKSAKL


Assays:
[1] = target: T1, Recombinant Human CD200R, His tagged; experiment: SPR (Biacore T200), CD200-Fc captured on anti-human Fc, His-tagged CD200R flowed over it, 25 C, 1:1 Langmuir model
Method: (§1) Anti-human Fc was covalently immobilized on a BIAcore CM5 sensor chip by amine coupling using a GE Healthcare kit following the manufacturer's instructions. Maximum immobilization target was set between 10000-15000 RU. Flow cell 1 was used as a reference, with no immobilized ligand, to permit deduction of non-specific binding to the chip surface. The Fc-ligands were diluted to 0.5 μg/mL in BIAcore running buffer (HBS-EP+: 10 mM HEPES buffered saline containing 2 mM EDTA and 0.05% surfactant P-20). In the final immobilization step, wild-type CD200-Fc, mutant CD200-Fc and un-related control protein (Herceptin/Trastuzumab) were passed over the chip (using flow cells 2, 3 and 4 respectively), for 120 seconds, at a concentration giving rise to a minimum of 250 response units (RU), followed by stabilization of the surface for 120 seconds in running buffer. The CD200-Fc capture procedure was repeated for every CD200R concentration.
(§2) Following capture of the Fc-tagged proteins, CD200R (at different concentrations) was flowed over the captured CD200-Fc and control proteins for 120 seconds (to observe association), followed by 120 seconds of running buffer (to observe dissociation). The chip surface was then regenerated using 10 mM Glycine-HCl (pH 2) for 30 seconds (30 μl/min flow rate) followed by stabilization of the surface for 60 seconds with BIAcore running buffer before the next cycle. All CD200R concentrations were run in duplicate at the following concentrations: 1 μM, 500 nM, 250 nM, 125 nM, 62.5 nM, 31.25 nM, 15.6 nM and 0 nM.
(§3) The results were represented in sensorgrams plotted as response or resonance units (Rus) versus time. The experimental sensorgrams were analyzed in BIAevaluation software version 1.0 (GE Healthcare). […] Rate equations using standard parameters (e.g. ligand concentration, time) were used for iterative curve fitting. Closeness of fit was determined by algorithms provided by the manufacturer in the BIAevaluation software version 1.0.

[2] = target: T1, Recombinant Human CD200R, His tagged; experiment: SPR (Biacore T200), CD200-Fc captured on anti-human Fc, His-tagged CD200R flowed over it, 25 C, two state binding model
Method: as §1, with “concentration. […]” for “concentration.”
(§4) The results were represented in sensorgrams plotted as response or resonance units (Rus) versus time. The experimental sensorgrams were analyzed in BIAevaluation software version 1.0 (GE Healthcare). […] Closeness of fit was determined by algorithms provided by the manufacturer in the BIAevaluation software version 1.0.

[3] = target: T1, Recombinant Human CD200R, His tagged; experiment: SPR (BIAcore T200, 25 C): CD200-Fc captured through anti-human Fc on a CM5 chip, His-tagged human CD200R flowed over it. Sensorgrams fitted with the 2 site (two state) binding model. Table 4 of the text gives 3.0 nM for this fit.
Method: as §1, with “concentration. […]” for “concentration.”
as §4

[4] = target: T1, Recombinant Human CD200R, His tagged; experiment: SPR (Biacore T200), CD200-Fc captured on anti-human Fc, His-tagged CD200R flowed over it, 25 C, 1:1 binding model
Method: as §1, §2, §3

| Molecule | Kd [1] | koff [1] | kon [1] | t½ [1] | Kd [2] | Kd [3] | Kd [4] | koff [4] | kon [4] | t½ [4] |
| --- | --- | --- | --- | --- | --- | --- | --- | --- | --- | --- |
| DS-155 wild-type CD200-Fc fusion protein (IgG4 S228P Fc) | 50 nM | 0.0251 s⁻¹ | 543000 M⁻¹ s⁻¹ | 0.467 min | – | – | – | – | – | – |
| DS-150 mutant CD200-Fc fusion protein (K130F, I131F, IgG2 Fc) (Fc fusion, Purified as the dimeric form) QVQVVTQDEREQLYTPASLKCSLQNAQEALIVTWQKKKAVSPENMVTFSENHGVVIQPAYKDKINITQLGLQNSTITFWNITLEDEGCYMCLFNTFGFGFFSGTACLTVYVQPIVSLHYKFSEDHLNITCSATARPAPMVFWKVPRSGIENSTVTLSHPNGTTSVTSILHIKDPKNQVGKEVICQVLHLGTVTDFKQTVNKGERKCCVECPPCPAPPVAGPSVFLFPPKPKDTLMISRTPEVTCVVVDVSHEDPEVQFNWYVDGVEVHNAKTKPREEQFNSTFRVVSVLTVVHQDWLNGKEYKCKVSNKGLPAPIEKTISKTKGQPREPQVYTLPPSREEMTKNQVSLTCLVKGFYPSDISVEWESNGQPENNYKTTPPMLDSDGSFFLYSKLTVDKSRWQQGNVFSCSVMHEALHNHYTQKSLSLSPGK | 2.6 nM | 0.000226 s⁻¹ | 87500 M⁻¹ s⁻¹ | 51.2 min | – | – | – | – | – | – |
| DS-151 mutant CD200-Fc fusion protein (K130F, I131Y, IgG2 Fc) (Fc fusion, Purified as the dimeric form) QVQVVTQDEREQLYTPASLKCSLQNAQEALIVTWQKKKAVSPENMVTFSENHGVVIQPAYKDKINITQLGLQNSTITFWNITLEDEGCYMCLFNTFGFGFYSGTACLTVYVQPIVSLHYKFSEDHLNITCSATARPAPMVFWKVPRSGIENSTVTLSHPNGTTSVTSILHIKDPKNQVGKEVICQVLHLGTVTDFKQTVNKGERKCCVECPPCPAPPVAGPSVFLFPPKPKDTLMISRTPEVTCVVVDVSHEDPEVQFNWYVDGVEVHNAKTKPREEQFNSTFRVVSVLTVVHQDWLNGKEYKCKVSNKGLPAPIEKTISKTKGQPREPQVYTLPPSREEMTKNQVSLTCLVKGFYPSDISVEWESNGQPENNYKTTPPMLDSDGSFFLYSKLTVDKSRWQQGNVFSCSVMHEALHNHYTQKSLSLSPGK | 1.4 nM | 0.000181 s⁻¹ | 128000 M⁻¹ s⁻¹ | 63.8 min | – | – | – | – | – | – |
| DS-162 mutant CD200-Fc fusion protein (I131F, IgG2 Fc) (Fc fusion, Purified as the dimeric form) QVQVVTQDEREQLYTPASLKCSLQNAQEALIVTWQKKKAVSPENMVTFSENHGVVIQPAYKDKINITQLGLQNSTITFWNITLEDEGCYMCLFNTFGFGKFSGTACLTVYVQPIVSLHYKFSEDHLNITCSATARPAPMVFWKVPRSGIENSTVTLSHPNGTTSVTSILHIKDPKNQVGKEVICQVLHLGTVTDFKQTVNKGERKCCVECPPCPAPPVAGPSVFLFPPKPKDTLMISRTPEVTCVVVDVSHEDPEVQFNWYVDGVEVHNAKTKPREEQFNSTFRVVSVLTVVHQDWLNGKEYKCKVSNKGLPAPIEKTISKTKGQPREPQVYTLPPSREEMTKNQVSLTCLVKGFYPSDISVEWESNGQPENNYKTTPPMLDSDGSFFLYSKLTVDKSRWQQGNVFSCSVMHEALHNHYTQKSLSLSPGK | – | – | – | – | 3 nM | 3.1 nM | 3 nM | 0.00474 s⁻¹ | 1.9e+06 M⁻¹ s⁻¹ | 2.43 min |
| DS-149 mutant CD200-Fc fusion protein (K130Y, I131F, IgG2 Fc) (Fc fusion, Purified as the dimeric form) QVQVVTQDEREQLYTPASLKCSLQNAQEALIVTWQKKKAVSPENMVTFSENHGVVIQPAYKDKINITQLGLQNSTITFWNITLEDEGCYMCLFNTFGFGYFSGTACLTVYVQPIVSLHYKFSEDHLNITCSATARPAPMVFWKVPRSGIENSTVTLSHPNGTTSVTSILHIKDPKNQVGKEVICQVLHLGTVTDFKQTVNKGERKCCVECPPCPAPPVAGPSVFLFPPKPKDTLMISRTPEVTCVVVDVSHEDPEVQFNWYVDGVEVHNAKTKPREEQFNSTFRVVSVLTVVHQDWLNGKEYKCKVSNKGLPAPIEKTISKTKGQPREPQVYTLPPSREEMTKNQVSLTCLVKGFYPSDISVEWESNGQPENNYKTTPPMLDSDGSFFLYSKLTVDKSRWQQGNVFSCSVMHEALHNHYTQKSLSLSPGK | 1.9 nM | 0.000229 s⁻¹ | 132000 M⁻¹ s⁻¹ | 50.5 min | – | – | – | – | – | – |
| DS-161 mutant CD200-Fc fusion protein (K130F, IgG2 Fc) (Fc fusion, Purified as the dimeric form) QVQVVTQDEREQLYTPASLKCSLQNAQEALIVTWQKKKAVSPENMVTFSENHGVVIQPAYKDKINITQLGLQNSTITFWNITLEDEGCYMCLFNTFGFGFISGTACLTVYVQPIVSLHYKFSEDHLNITCSATARPAPMVFWKVPRSGIENSTVTLSHPNGTTSVTSILHIKDPKNQVGKEVICQVLHLGTVTDFKQTVNKGERKCCVECPPCPAPPVAGPSVFLFPPKPKDTLMISRTPEVTCVVVDVSHEDPEVQFNWYVDGVEVHNAKTKPREEQFNSTFRVVSVLTVVHQDWLNGKEYKCKVSNKGLPAPIEKTISKTKGQPREPQVYTLPPSREEMTKNQVSLTCLVKGFYPSDISVEWESNGQPENNYKTTPPMLDSDGSFFLYSKLTVDKSRWQQGNVFSCSVMHEALHNHYTQKSLSLSPGK | 0.7 nM | 0.000593 s⁻¹ | 838000 M⁻¹ s⁻¹ | 19.5 min | – | – | – | – | – | – |
